# Experimental data as given in US20260242419A1, “A CYCLIC PEPTIDE FOR TRAPPING INTERLEUKIN-1 BETA” (Merck Sharp & Dohme LLC, priority 2023, published 2026).
# Non-standard residues stand in square brackets, D forms with d. No end group written: not given here. Phe(4-(5-CO2H-2-pyrimidyl)) = N[C@@H](Cc1ccc(-c2ncc(C(=O)O)cn2)cc1)C(=O)O; Phe(4-(4-Ac-piperazinyl)) = CC(=O)N1CCN(c2ccc(C[C@H](N)C(=O)O)cc2)CC1; dPro(4R-(4-pyridylmethyl)) = O=C(O)[C@H]1C[C@@H](Cc2ccncc2)CN1; Trp(βS-Me,4-F) = C[C@@H](c1c[nH]c2cccc(F)c12)[C@H](N)C(=O)O; Bip(4'-COOH) = N[C@@H](Cc1ccc(-c2ccc(C(=O)O)cc2)cc1)C(=O)O; Ala(1-bicyclo(1.1.1)pentyl) = N[C@@H](CC12CC(C1)C2)C(=O)O; dPro(4R-Bzl(4-F)) = O=C(O)[C@H]1C[C@@H](Cc2ccc(F)cc2)CN1; Ala(pyrimidin-5-yl) = N[C@@H](Cc1cncnc1)C(=O)O; Phe(4-COOH) = N[C@@H](Cc1ccc(C(=O)O)cc1)C(=O)O; Pro(cis-4-F) = O=C(O)[C@@H]1C[C@H](F)CN1; Ala(4-THP) = N[C@@H](CC1CCOCC1)C(=O)O; cisHyp = O=C(O)[C@@H]1C[C@H](O)CN1; 4Pal = N[C@@H](Cc1ccncc1)C(=O)O; aThr = C[C@H](O)[C@H](N)C(=O)O; αMeD = C[C@](N)(CC(=O)O)C(=O)O; d(αMeS) = C[C@@](N)(CO)C(=O)O; Dab = NCC[C@H](N)C(=O)O; Aib = CC(C)(N)C(=O)O; Sar = CNCC(=O)O
# Target: Recombinant human IL-1β (BioLegend 579404) (human, UniProt P01584 117-269)
# Test: cell-based or functional assay
row,Binder,MRC5 IC50
1,"[Bip(4'-COOH)][Ala(1-bicyclo(1.1.1)pentyl)][Phe(4-COOH)]G[cisHyp][Trp(βS-Me,4-F)][Aib]SW[d(αMeS)][Ala(pyrimidin-5-yl)]Q[Dab]G[dPro(4R-(4-pyridylmethyl))] (lactam (positions not given here); also: macrolactam ring, closure sites not given here) [SEQ ID NO: 190]",0.019 nM
2,"[Bip(4'-COOH)][4Pal][Phe(4-COOH)]G[cisHyp][Trp(βS-Me,4-F)][Aib]SW[d(αMeS)][Ala(pyrimidin-5-yl)]Q[Dab]G[dPro(4R-(4-pyridylmethyl))] (lactam (positions not given here); also: macrolactam ring, closure sites not given here) [SEQ ID NO: 195]",0.013 nM
3,"[Bip(4'-COOH)][Ala(1-bicyclo(1.1.1)pentyl)][Phe(4-COOH)]G[cisHyp][Trp(βS-Me,4-F)][Aib]SW[αMeD][Ala(4-THP)]Q[Dab]G[dPro(4R-(4-pyridylmethyl))] (lactam (positions not given here); also: macrolactam ring, closure sites not given here) [SEQ ID NO: 191]",0.021 nM
4,"[Phe(4-(4-Ac-piperazinyl))][4Pal][Phe(4-COOH)]G[cisHyp][Trp(βS-Me,4-F)][Aib]SW[Aib][Ala(pyrimidin-5-yl)]Q[Dab]G[dPro(4R-Bzl(4-F))] (lactam (positions not given here); also: macrolactam ring, closure sites not given here) [SEQ ID NO: 196]",0.038 nM
5,"cyclo([Bip(4'-COOH)][4Pal][Phe(4-COOH)]G[cisHyp][Trp(βS-Me,4-F)][Aib]SW[αMeD][Ala(4-THP)]QSG[dPro(4R-(4-pyridylmethyl))]) (ring closure inferred; not fully specified (bridges); printed as Bip4CO2H-4Pal-Phe4COOH-G-Proc4OH-SbMeW4F-Aib-S-W-aMeD-AlaTHP4-Q-S-G-dProc4CH24Pal, cyclic (macrolactam)) [SEQ ID NO: 199]",0.032 nM
6,"[Bip(4'-COOH)][4Pal][Phe(4-COOH)]G[Pro(cis-4-F)][Trp(βS-Me,4-F)][Aib]SW[αMeD][Ala(4-THP)]QSG[dPro(4R-(4-pyridylmethyl))] (lactam (positions not given here); also: macrolactam ring, closure sites not given here) [SEQ ID NO: 189]",0.016 nM
7,"[Phe(4-(5-CO2H-2-pyrimidyl))][Ala(1-bicyclo(1.1.1)pentyl)][Phe(4-COOH)]G[Pro(cis-4-F)][SbMcW4F][Aib]SW[Aib][Ala(pyrimidin-5-yl)]Q[Dab]G[dPro(4R-(4-pyridylmethyl))] (lactam (positions not given here); also: macrolactam ring, closure sites not given here) [SEQ ID NO: 198]",0.024 nM
8,"[Bip(4'-COOH)][Ala(1-bicyclo(1.1.1)pentyl)][Phe(4-COOH)]G[Pro(cis-4-F)][Trp(βS-Me,4-F)][Aib]SW[αMeD][Ala(4-THP)]Q[Dab]G[dPro(4R-(4-pyridylmethyl))] (lactam (positions not given here); also: macrolactam ring, closure sites not given here) [SEQ ID NO: 193]",0.011 nM
9,"cyclo([Bip(4'-COOH)][4Pal][Phe(4-COOH)]G[Pro(cis-4-F)][Trp(βS-Me,4-F)][Aib]SW[αMeD][Ala(4-THP)]Q[Dab]G[dPro(4R-(4-pyridylmethyl))]) (ring closure inferred; not fully specified (bridges); printed as Bip4CO2H-4Pal-Phe4COOH-G-Proc4F-SbMeW4F-Aib-S-W-aMeD-AlaTHP4-Q-Dab-G-dProc4CH24Pal, cyclic (macrolactam)) [SEQ ID NO: 200]",0.014 nM
10,"[Phe(4-(5-CO2H-2-pyrimidyl))][Ala(1-bicyclo(1.1.1)pentyl)][Phe(4-COOH)]G[Pro(cis-4-F)][Trp(βS-Me,4-F)][Aib]SW[αMeD][Ala(pyrimidin-5-yl)]Q[Dab]G[dPro(4R-(4-pyridylmethyl))] (lactam (positions not given here); also: macrolactam ring, closure sites not given here) [SEQ ID NO: 188]",0.02 nM
11,"[Bip(4'-COOH)][4Pal][Phe(4-COOH)]G[cisHyp][Trp(βS-Me,4-F)][Aib]SW[Aib][Ala(pyrimidin-5-yl)]Q[Dab]G[dPro(4R-(4-pyridylmethyl))] (lactam (positions not given here); also: macrolactam ring, closure sites not given here) [SEQ ID NO: 194]",0.014 nM
12,"[Bip(4'-COOH)][Ala(1-bicyclo(1.1.1)pentyl)][Phe(4-COOH)]G[cisHyp][Trp(βS-Me,4-F)][Aib]SW[d(αMeS)][Ala(4-THP)]Q[Dab]G[dPro(4R-(4-pyridylmethyl))] (lactam (positions not given here); also: macrolactam ring, closure sites not given here) [SEQ ID NO: 192]",0.021 nM
13,"[Phe(4-(5-CO2H-2-pyrimidyl))][4Pal][Phe(4-COOH)]G[cisHyp][Trp(βS-Me,4-F)][Aib]SW[Aib][Ala(pyrimidin-5-yl)]Q[Dab]G[dPro(4R-(4-pyridylmethyl))] (lactam (positions not given here); also: macrolactam ring, closure sites not given here) [SEQ ID NO: 197]",0.036 nM

# Other lines, results leading:
row,MRC5 IC50,Binder
1,0.017 nM,"cyclo([Bip(4'-COOH)][Ala(1-bicyclo(1.1.1)pentyl)][Phe(4-COOH)]G[Pro(cis-4-F)][Trp(βS-Me,4-F)][Aib]SW[d(αMeS)][Ala(4-THP)]Q[Dab]G[dPro(4R-(4-pyridylmethyl))]) (ring closure inferred; not fully specified (bridges); printed as Bip4CO2H-AlaPent-Phe4COOH-G-Proc4F-SbMeW4F-Aib-S-W-daMeS-AlaTHP4-Q-Dab-G-dProc4CH24Pal, cyclic (macrolactam)) [SEQ ID NO: 204]"
2,0.019 nM,"cyclo([Bip(4'-COOH)][4Pal][Phe(4-COOH)]G[cisHyp][Trp(βS-Me,4-F)][Aib]SW[αMeD][Ala(4-THP)]Q[Dab]G[dPro(4R-(4-pyridylmethyl))]) (ring closure inferred; not fully specified (bridges); printed as Bip4CO2H-4Pal-Phe4COOH-G-Proc4OH-SbMeW4F-Aib-S-W-aMeD-AlaTHP4-Q-Dab-G-dProc4CH24Pal, cyclic (macrolactam)) [SEQ ID NO: 201]"
3,0.028 nM,"cyclo([Bip(4'-COOH)][4Pal][Phe(4-COOH)]G[Pro(cis-4-F)][Trp(βS-Me,4-F)][Aib]SW[Aib][Ala(pyrimidin-5-yl)]Q[Dab][Sar][dPro(4R-(4-pyridylmethyl))]) (ring closure inferred; not fully specified (bridges); printed as Bip4CO2H-4Pal-Phe4COOH-G-Proc4F-SbMeW4F-Aib-S-W-Aib-PyrimAla-Q-Dab-Sar-dProc4CH24Pal, cyclic (macrolactam)) [SEQ ID NO: 205]"
4,0.022 nM,"cyclo([Bip(4'-COOH)][4Pal][Phe(4-COOH)]G[Pro(cis-4-F)][Trp(βS-Me,4-F)][Aib]SW[d(αMeS)][Ala(pyrimidin-5-yl)]Q[Dab][Sar][dPro(4R-(4-pyridylmethyl))]) (ring closure inferred; not fully specified (bridges); printed as Bip4CO2H-4Pal-Phe4COOH-G-Proc4F-SbMeW4F-Aib-S-W-daMeS-PyrimAla-Q-Dab-Sar-dProc4CH24Pal, cyclic (macrolactam)) [SEQ ID NO: 206]"
5,0.013 nM,"cyclo([Bip(4'-COOH)][Ala(1-bicyclo(1.1.1)pentyl)][Phe(4-COOH)]G[Pro(cis-4-F)][Trp(βS-Me,4-F)][Aib]SW[αMeD][aThr]Q[Dab]G[dPro(4R-(4-pyridylmethyl))]) (ring closure inferred; not fully specified (bridges); printed as Bip4CO2H-AlaPent-Phe4COOH-G-Proc4F-SbMeW4F-Aib-S-W-aMeD-alT-Q-Dab-G-dProc4CH24Pal, cyclic (macrolactam)) [SEQ ID NO: 202]"
6,0.016 nM,"cyclo([Bip(4'-COOH)][Ala(1-bicyclo(1.1.1)pentyl)][Phe(4-COOH)]G[Pro(cis-4-F)][Trp(βS-Me,4-F)][Aib]SW[αMeD]VQ[Dab]G[dPro(4R-(4-pyridylmethyl))]) (ring closure inferred; not fully specified (bridges); printed as Bip4CO2H-AlaPent-Phe4COOH-G-Proc4F-SbMeW4F-Aib-S-W-aMeD-V-Q-Dab-G-dProc4CH24Pal, cyclic (macrolactam)) [SEQ ID NO: 203]"
